Laboratory results reported in patent publication US20090028889A1, “Novel Polypeptide Ligands For Toll-Like Receptor 2 (TLR2)” (VAXINNATE CORPORATION, priority 2005, published 2009).

Target: T1, TLR2 (Homo sapiens, UniProt O60603)
Assay: not given
Details: cited from earlier work
Target sequence in this assay (O60603 21-784, species assumed): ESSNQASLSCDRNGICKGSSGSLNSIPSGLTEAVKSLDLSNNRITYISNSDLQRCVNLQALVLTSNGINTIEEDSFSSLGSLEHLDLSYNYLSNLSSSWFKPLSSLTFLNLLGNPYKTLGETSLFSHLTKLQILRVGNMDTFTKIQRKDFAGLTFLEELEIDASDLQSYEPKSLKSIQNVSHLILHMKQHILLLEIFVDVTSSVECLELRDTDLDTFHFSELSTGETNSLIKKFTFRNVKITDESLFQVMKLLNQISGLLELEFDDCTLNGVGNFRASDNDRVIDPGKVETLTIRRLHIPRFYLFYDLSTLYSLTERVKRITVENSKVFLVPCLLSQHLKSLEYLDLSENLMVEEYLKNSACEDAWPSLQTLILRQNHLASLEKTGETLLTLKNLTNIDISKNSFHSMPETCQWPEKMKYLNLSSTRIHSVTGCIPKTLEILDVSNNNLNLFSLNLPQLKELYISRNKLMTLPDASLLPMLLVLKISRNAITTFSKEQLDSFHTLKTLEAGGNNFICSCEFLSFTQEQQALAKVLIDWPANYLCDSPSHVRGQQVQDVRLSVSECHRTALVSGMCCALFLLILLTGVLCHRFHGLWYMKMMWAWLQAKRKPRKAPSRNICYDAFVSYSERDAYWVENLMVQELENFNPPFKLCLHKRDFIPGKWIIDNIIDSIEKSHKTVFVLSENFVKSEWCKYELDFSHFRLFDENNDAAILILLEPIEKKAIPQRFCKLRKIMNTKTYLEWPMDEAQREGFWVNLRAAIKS

In the case of ALTTE, the “activation of monocytes and epithelial cells via TLR2 signaling” value is given as “activate monocytes and epithelial cells via TLR2 signaling”.

Target: T1, TLR2
Assay: NF-κB-dependent luciferase reporter assay, parental 293 vs 293.hTLR2 cells
Type: cell-based
Parameters: host or cells: HEK293 (293.luc, stably carrying κB-LUC reporter)
Details: 293.hTLR2 vs parental 293 cells, four to five hours at 37° C.
Procedure: NF-κB-dependent luciferase reporter assay: Parental 293 cells and 293.hTLR2 cells (see Example 1, above) were incubated with an aliquot of test peptide four to five hours at 37° C. NF-κB-dependent luciferase activity was measured using the Steady-Glo Luciferase Assay System by Promega (E2510), following the manufacturer's instructions. Luminescence was measured on a microplate luminometer (FARCyte, Amersham) and expressed as relative luminescence units (RLU) after subtracting the background reading obtained by exposing cells to the DMEM medium alone.
The biological activity of the TLR2-binding peptides isolated by the screening method was confirmed using the isolated peptides in an NF-κB-dependent reporter gene assay. For this assay, a synthetic monomer of the DPDSG motif (SEQ ID NO: 5), or a concatemerized copy (DPDSG)5, was incubated on parental HEK293 cells containing an NF-κB-dependent luciferase reporter construct (293) and on TLR2-overexpressing HEK293 cells containing an NF-κB-dependent luciferase reporter construct (293.hTLR2, see Example 1, above). Luciferase activity was then measured. […] Thus, the TLR2-binding peptides identified by the screening assay are functional peptide TLR2 ligands.
Target sequence in this assay (O60603 21-784): as the sequence (O60603 21-784, species assumed) above

With “(DPDSG)5: concatemerized copy of the DPDSG motif, made by solid phase synthesis (DPDSGDPDSGDPDSGDPDSGDPDSG)” the “luciferase reporter gene expression” value was “activated luciferase reporter gene expression in a TLR2-dependent manner”.
In the case of “DPDSG: peptide TLR2 ligand from phage display; also made as synthetic monomer”, the “luciferase reporter gene expression” value is reported as “activated luciferase reporter gene expression in a TLR2-dependent manner”.

Target: human TLR2 (hTLR2) (human) (UniProt O60603)
Sequence (O60603 21-784 limits assumed): as the sequence (O60603 21-784, species assumed) above
Assay: T7 phage display biopanning, 4 rounds, on 293.hTLR2 cells after negative panning on parental HEK293; percent of 109 sequenced clones
Details: not given

In order of rising % ABUNDANCE:
1. ADTHQ (T7 phage-displayed peptide)  0.9%
2. AWAGT (T7 phage-displayed peptide)  0.9%
3. CVWLQ (T7 phage-displayed peptide)  0.9%
4. GPLLH (T7 phage-displayed peptide)  0.9%
5. HLLPG (T7 phage-displayed peptide)  0.9%
6. IHVVP (T7 phage-displayed peptide)  0.9%
7. IMWFP (T7 phage-displayed peptide)  0.9%
8. IYKLA (T7 phage-displayed peptide)  0.9%
9. KGWF (T7 phage-displayed peptide)  0.9%
10. KYMPH (T7 phage-displayed peptide)  0.9%
11. LRQGR (T7 phage-displayed peptide)  0.9%
12. MFGVP (T7 phage-displayed peptide)  0.9%
13. NYRRW (T7 phage-displayed peptide)  0.9%
14. RVVAP (T7 phage-displayed peptide)  0.9%
15. SHIAL (T7 phage-displayed peptide)  0.9%
16. THKPK (T7 phage-displayed peptide)  0.9%
17. VGKND (T7 phage-displayed peptide)  0.9%
18. ACGVY (T7 phage-displayed peptide)  0.92%
19. AGCFS (T7 phage-displayed peptide)  0.92%
20. AVRLS (T7 phage-displayed peptide)  0.92%
21. CGPKL (T7 phage-displayed peptide)  0.92%
22. EVCAP (T7 phage-displayed peptide)  0.92%
23. FCGLG (T7 phage-displayed peptide)  0.92%
24. GGKLS (T7 phage-displayed peptide)  0.92%
25. IMRHP (T7 phage-displayed peptide)  0.92%
26. KCQSF (T7 phage-displayed peptide)  0.92%
27. MISS (T7 phage-displayed peptide)  0.92%
28. MRRIL (T7 phage-displayed peptide)  0.92%
29. NPPTT (T7 phage-displayed peptide)  0.92%
30. NRFGL (T7 phage-displayed peptide)  0.92%
31. NRTVF (T7 phage-displayed peptide)  0.92%
32. PESGV (T7 phage-displayed peptide)  0.92%
33. RGGF (T7 phage-displayed peptide)  0.92%
34. SGGLF (T7 phage-displayed peptide)  0.92%
35. SRHGR (T7 phage-displayed peptide)  0.92%
36. MGTLP (T7 phage-displayed peptide)  1.8%
37. IGRFR (T7 phage-displayed peptide)  2.7%
38. RGGSK (T7 phage-displayed peptide)  3.67%
39. VSEGV (T7 phage-displayed peptide)  3.67%
